Experimental data published in a protein production outcome set (Wang et al. 2014).

Experiment: label from the status in PepcDB records

Sequence	protein production
IEVSYHTPDGVPGVVMTTPKLDDGTPFPTLYYLTEPRLTAEASRLEVAHVMKWMTDRLHSDEELRQDYERAHEYFLAKRNALEDLGTDFSGGGMPDRVKCLHVLIAYALAEGPDHFRLGTEAVALA	failed
IGPSSSHTMGPMTAANVFRDHVDQLVSQTPDDLNYRVYCVLKGSLAFTGRGHATDRAVALGLHGHSPVSLAGEDVNALTAKLWATDTLQLTSGREIGFNPEDDIVFDKSDPLPQHPNGMIFYLLDEEGKKILSETFFSIGGGFICTLAEINQ	not failed
IKATYETFSSPNGHGEGRGYLVMPQKKTIKSPTVLVIHENRGLNPYIKDVARRLAKDGFIAFAPDALYPLGGYPGNDDEGRAMQKEMDRAKIEQDFIAAAKFIKQHEHGNGKLGAVGFCFGGYVVNMLAAVMPNELDAGVPFYGTPAAEEIQKQVKGPLMLHFAGLDKRVNDTWPSYEQQLIASGAKYQALMYENVNHGFHNDSTARYAPEEAALAWERTLAFFKEHL	failed
IKAVFDPDNRLNPGKICPPEGIDAPMMKVDAAKRGTWDRQIPIAVRSSWRGAMECNGNGLCFNFDVKSPMCPSMKVSNQRIHSPKGRATLVREWLRLLADRGVDPNQLEKALPEQGVSLRSLVARTRNSWHARKGEYDFSHEVKEAMSGCLACKACSTQCPIKIDVPEFRSRFLQLYHSRYLRPVRD	failed
IKKNVFNIFYLFLVLEELKGPVLYIVGTPIGNLEDITYRAIDVLKSVNVIFAEDTRVTSKLLSRYKINKKMISCNAVTENKKISLLLDYLAKGNSVAFVSDAGTPGLSDPGSLLVAAAFREGYKVCPIPGV	failed
ILIQINPLDNVAIVVNDHGLEKQTVIEEYQLTLVDDVPQGHKVLLKALKKDEAIIRYGEIIGYANADLEAGRWVNESVTRMPEA	failed
IMDQDGRSMFADGSKVPFERTRLLLQRLAVPLRATPLRVTIVGHTSSGLMPERSDYNGWDLSSDRANSVRQILEREGLPGSHIFAVTGKADSQPLFPDDPSIAANRRVTITLMRESPALP	failed
INRRRDSKQMTEHNLSVVNTATLYIVPTPIGNLGDITQRAIEVLKSVDLIAAEDTRHTGKLLSHFGIASQTFALHDHNEQHKADLLISKLQQGLSIALVSDAGTPLISDPGYHLVNRCRQANVNVVPLPGA	failed
IPGPGFTAGAQGSCSLRCGAQDGLCSCHPTCSGLGTCCEDFLDYCLEILPSSGSMMGGKDFVVQHLKWTDP	not failed
IQNVLSYITEHFSEGMSLKTLGNDFHINAVYLGQLFQKEMGEHFTDYLNRYRVNYAKEELLQTKDNLTIIAGKSGYTDMAYFYRQFKKHTGETPNRYRKIHQ	failed
IRQRKRAERALNDQLEFMRVLIDGTPNPIYVRDKEGRMLLCNDAYLDTFGVTADAVLGKTIPEANVVGDPALAREMHEFLLTRMAAEREPRFEDRDVTLHGRTRHVYQWTVPYGDSLGELKGIIGGWIDIT	failed
IRSIWENNGFGLMSSKTMTDFDYWISDFEKIGASQKEAEQLIVKAIEIAIDANARNYNYINAILKDWEQRGFKSVEEREAARKQKKTTKKQKSNTGHSDYDDLGF	not failed
IRTHLNLPSDKKVIMYAPTWRDDEFVSKGKYLFELKIDLDNLYKELGDDYVILLRMHYLISNALDLSGYENFAIDVSNYNDVSELFLISDCLITDYSSVMFDYGILKRPQFFFAYDIDKYDKGLRGFYMNYMEDLPGPIYTEPYGLAKELKNLDKVQQQYQEKIDAFYDRFCSVDNGKASQYIGDLIHKDIKEQ	failed
ISCSDPNPLDSYTRVPFEKTETDDGNGDGDGDGAGGLFEKGNGTDSKPYMIMNATQIRNMRSVLKSGMKVYFQLGADIDMAGIDDWQSLNGSGDFPYEIDFDGDSHVIKNFKCSAGDYPSFFGVLCGDCRNVGFVNASVSSARQGIGIITGYLGLKDKGNGNKTGRIVNCYTTGEVIGSGAAGGIAGVLANSYDGQESYIKNCYSNATVSDRAASGGKAGGIAGRKVGVGGFIENCYAYGAVSATKGGVGGILGQIDKSCDIAIKNSAAWSNLTGVDASSTVGRIVGVSASLGSYENCYACESIVLKVNEKTITASDESSATGTTFHGVAKSAEELGNIIVAWNPNLWKKGTNGYPIFQWSE	not failed
ISRRNQDMLLSVLDLEKMTVDDIMVPRSEIIGIDINDDWKSILRQLSHSPHGRIVLYRDSLDDAISMLRVREAWRLMSEKKEFTKETMLRAADEIYFVPEGTPLSTQLVKFQRNKKKVGLVVNEYGDIQGLVTVEDILEEIVGDFTTSMS	not failed
ISTVSGKVERLISFDIAKRWYLRDIAERMYTSESLIKKKLQDENTCFSKILLASRMSMARRLLELRQIPLHTIAEKCGYSSTSYFINTFRQYYGVTPHQFAQHSPGT	failed
IYGLVQRCVIIQKDDNGFGLTVSGDNPVFVQSVKEDGAAMRAGVQTGDRIIKVNGTLVTHSNHLEVVKLIKSGSYVALTVQGRPPGSPQIPLADSEVEPSVIGHMSPIMTSPHSPGASGNMERITSPVLMGEENNVVHNQK	failed
KAPNLYMTDTTGTYRYLYDVQAKYTILFFWDSQCGHCQQETPKLYDWWLKNRAKGIQVYAANIERKDEEWLKFIRSKKIGGWLNVRDSKNHTDFKITYDIYATPVLYVLDKNKVIIAKRIGYENLDDFLVQYEKSLKTK	not failed

Sequence	protein production
KDADHIHHLIDQSLIAKGFQEILTNSLTKGAYNELLSKQEDAVPILNKLSEELAFMRPSLAFTGLETVAYNINRRQKNLKLFEWGKVYFKRGTKYNEYNRLSVFITGNQHAESWNTPSKTVDFFDMKAVVVQILEKLHIAVTQVQEIESNPLFSKGVIYKHAGKELVQFGYISQAALKATDVKQEVLFADFNADLLLELYSNKSKYKEIS	not failed
KEAGSQIMKFEVQDASPTIATELNLVTGEQVYYIKRLRFIEDNAAQLEETWMSVARFPDLTVSHMQKSKFSYIENECGIKIIGTFETFSPTFPTPEIASILRISPRDPILKIQTQAVDSNSIPLDYSLLYSN	failed
KEALEALVPVTIEVEVPFDLHRYVIGQKGSGIRKMMDEFEVNIHVPAPELQSDIIAITGLAANLDRAKAGLLERVKELQAEQEDRALRSFK	not failed
KESLQVTLYRDNHAWCPYCQKVWLWLEEKQIPYRIKKVTMFCYGEKEDWYKKLVPSGMLPALELDGRFYTESDDILIALEKAFGPLLWAMEDPLVLPLRKLERLLFRAWCNWLCYPAM	failed
KGKSFIWIKRQLDPKVAEEVKALGLENFVFEKELKRHYPMGNLFAHVIGFTDIDGKGQEGLELSLEDSLYGEDGAEVVLRDRQGNIVDSLDSPRNKAPQNGKDIILSLD	failed
KGLDKWGIYVPESAAQSVKDAVFEAGAGAIGDYSQCSFEWQGTGQFLPHHNAQPVVGHPGQLERTEELRVEFVAPARLRTTLIDAIRAAHPYEEPAFDVVSMQSTQDLETAEGLGRVGTLPEPMRFGDFVQQVADALPETSWGIRAAGDPEQMVHTVAVSSGSGDSFLDAVAALGVDVYVTSDLRHHPADESRRAQGPLLIDTAHWASEFPWTYQVQELLAQEFAQLDVEVATLRTDPWNISAHPQLR	not failed
KHLSLTPELYKYLLDISLREHPALAALRKETSTMELANMQVAPEQAQFMQMLIRLTRAKKVLELGTFTGYSALAMSLALPDDGQVITCDINEGWTKHAHPYWREAKQEHKIKLRLGPALDTLHSLLNEGGEHQFDFIFIDADKTNYLNYYELALKLVTPKGLIAIDNIFWDGKVIDPNDTSGQTREIKKLNQVIKNDSRVFVSLLAIADGMFLVQPI	not failed
KIRSYTSIWSVEKVLYSINDFRLPFPITFTQMTWFVVSLFAVMILGNVPPLSMIEGAFLKYFGIPVAFTWFMSTKTFDGKKPYGFLKSVIAYALRPKLTYAGKKVTLGRNQPQEAITAVRSEFY	failed
KITRLTTYRLPPRWMFLKVETDEGVTGWGEPVIEGRARTVEAAVHELSDYLIGQDPSRINDLWQTMYRAGFYRGGPILMSAIAGIDQALWDIKGKVLGVPVYELLGGLVRDKMRTYSWVGGDRPADVIAGMKALQAGGFDHFKLNGCEEMGIIDTSRAVDAAVARVAEIRSAFGNTVEFGLDFHGRVSAPMAKVLIKELEPYRPLFIEEPVLAEQAETYARLAAHTHLPIAAGERMFSRFDFKRVLEAGGVSILQPDLSHAGGITECVKIAAMAEAYDVALAPHCPLGPIALAACLHVDFVSWNATLQEQSMGIHYNKGAELLDYVRNKADFALEGGYIRPPRLPGLGVDIDEALVIERSKEAPDWRNPVWRHADGSVAEW	not failed
KKISSTAVIELALDLATSLNTKDRFDRLLDTVRKTITCDAVALLSYHGDVLKPIALQGLSRDTLGRRFYVEEHPRFLALCQSKSPIRFAADSPLPDPYDGLLIDREGDLPVHSCMGLPLYYDDKLLGLLTIDSLTPHDFEDIDVRMLEVISAIAAATLNTAFLLDQLESRADHSQRVVAELTEEAWKRDGGE	failed
KKPKHHVLSHDIIPASKPIAEKLQIQPESPVVELKRILYNDDQPLTFEVTHYPLDLFPGIDTFIADGVSMHDILKQQYKVVPTHNTKLLNVVYAQQEESKYLDCDIGDALFEIDKTAFTSNDQPIYCSLFLMHT	not failed
KKSKYMTPMQQKLNEVYEAVKNYTDKRGRRLSAIFLRLPSRSELPDYYLTIKKPMDMEKIRSHMMANKYQDIDSMVEDFVMMFNNACTYNEPESLIYKDALVLHKVLLETRRD	not failed
KLLAITSCPNGIAHTYMAAENLQKAADRLGVSIKVETQGGIGVENKLTEEEIREADAIIIAADRSVNKDRFIGKKLLSVGVQDGIRKPEELIQKALNGDIPVY	not failed
KQLGPHTYLVSGRMEIDDVNERFGLSLPESDDYLTVAGFILNSHQNIPQANEVVEIAPYTFTILRSSSTKIELVKMSIDD	not failed
KRFEFVGWGSRQLIEFLHSLGKDTSEMISRYDVSDTIAKYISKEGLLDPSNKKKVVCDKRLVLLFGTRTIFRMKVYDLLEKHYKENQD	not failed
KRPGNILIGTLPVGLDFPTRIVAEIVDAPSLTIEEIMRKAKYYLREGADIIDIGMESGKTNVEFLESVLPEIKEKINAPLSLDTLNPKEIEAGEKEVDLILSVDFGTVEEILPSKPVVLIPTNMKEGKFIEDPIGRAKALEKLKEKALNLGYKGLILDPILEHYPNFSRSLVAFYLYRMRNPQDILLAGVGNITEMMDADSVGLNALLASIAGELKISLLLTTEVSPKATGSVRELKRGIDMVLL	failed
KRSHLENALNYALENSETAYNEMFLECDKQFILESWLNDFDLTKDYNETMHLVFSIKDKPDEETMQGLLHSTWESLKIRLPEYKFALVPHAHQDHAHIHCFINKTNQLTRRRLRFKGHEDCKEFFNELRSEFAYRLNDHLLSEEYLYVNEPKLKELDNIKQQLQDLEKEEKALEQIKSPQDEWDLNKALQSEYLQELKYKNKAKALDIQNNHSTPLKQKISEFKIALFNHKDTSDDEKEQLDIDRIDKRKPVSEHLKNTNKHELYELLGFYQKELDKKQNHSAFKNFAILNGLDRDFERETNGYSVLKKKEMLLNKLEHLDKRLLDKNSHLLLAQ	failed
KRVFGFVSAKGGDGGSCIAANFAFALSQEPDIHVLAVDISLPFGDLDMYLSGNTHSQDLADISNASDRLDKSLLDTMVQHISPSLDLIPSPATFEKIVNIEPERVSDLIHIAASFYDYIIVDFGASIDHVGVWVLEHLDELCIVTTPSLQSLRRAGQLLKLCKEFEKPISRIEIILNRADTNSRITSDEIEKVIGRPISKRIPQDEDAMQESLLSGQSVLKVAPKSQLSKTIVDWALHLNGV	not failed
